B1: anti-CD277 monoclonal antibody mAb1 (antibody, V domains shown)
VH: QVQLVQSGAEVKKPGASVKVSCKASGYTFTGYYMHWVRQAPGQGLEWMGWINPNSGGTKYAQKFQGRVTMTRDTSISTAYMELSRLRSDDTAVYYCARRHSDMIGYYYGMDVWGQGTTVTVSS
VL: DIQMTQSPSSVSASVGDRVTITCRASQGISSWLAWYQQKPGKAPKLLIYAASSLQSGVPSRFSGSGSGTDFTLTISSLQPEDFATYYCQQATDFPPTFGGGTKVEIKR
B2: anti-CD277 antibody mAb11 (antibody, human IgG1, kappa, N297A, V domains shown)
VH: QVQLVQSGAEVKKPGASVKVSCKASGYTFSNYYIHWVRQAPGQGLEWMGWINANSGGTKYAQKFQGRVTMTRDTSISTAYMELSRLRSDDTAVYYCARRHSDMIGYYYGMDVWGQGTTVTVSS
VL: DIQMTQSPSSLSASVGDRVTITCRASQSISSYLNWYQQKPGKAPKLLIYAASSLQSGVPSRFSGSGSGTDFTLTISSLQPEDFATYYCQQANTFPPTFGQGTRLEIKR
B3: anti-CD277 antibody mAb5 (antibody, human IgG1, kappa, N297A, V domains shown)
VH: QVQLVQSGAEVKKPGASVKVSCKASGYTFSNYYIHWVRQAPGQGLEWMGWINANSGGTKYAQKFQGRVTMTRDTSISTAYMELSRLRSDDTAVYYCARRHSDMIGYYYGMDVWGQGTTVTVSS
VL: DIQMTQSPSSVSASVGDRVTITCRASQGISSWLAWYQQKPGKAPKLLIYAASSLQSGVPSRFSGSGSGTDFTLTISSLQPEDFATYYCQQATDFPPTFGGGTKVEIKR
B4: anti-CD277 antibody mAb7 (antibody, human IgG1, kappa, N297A, V domains shown)
VH: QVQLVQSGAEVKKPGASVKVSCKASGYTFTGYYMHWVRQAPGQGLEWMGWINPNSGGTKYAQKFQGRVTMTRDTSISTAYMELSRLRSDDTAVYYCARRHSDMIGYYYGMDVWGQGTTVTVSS
VL: DIQMTQSPSSLSASVGDRVTITCRASQDISVYLNWYQQKPGKAPKLLIYTASSLQSGVPSRFSGSGSGTDFTLTISSLQPEDFATYYCQQANSFPPTFGGGTKVDIKR
B5: anti-CD277 antibody mAb4 (antibody, human IgG1, kappa, N297A, V domains shown)
VH: QVQLVQSGAEVKKPGASVKVSCKASGYTFTNYYMHWVRQAPGQGLEWMGWINVNSGVTKYAQKFQGRVTMTRDTSISTAYMELSRLRSDDTAVYYCARRHSDMIGYYYGMDVWGQGTTVTVSS
VL: DIQMTQSPSSVSASVGDRVTITCRASQGISSWLAWYQQKPGKAPKLLIYAASSLQSGVPSRFSGSGSGTDFTLTISSLQPEDFATYYCQQATDFPPTFGGGTKVEIKR
B6: anti-CD277 antibody mAb6 (antibody, human IgG1, kappa, N297A, V domains shown)
VH: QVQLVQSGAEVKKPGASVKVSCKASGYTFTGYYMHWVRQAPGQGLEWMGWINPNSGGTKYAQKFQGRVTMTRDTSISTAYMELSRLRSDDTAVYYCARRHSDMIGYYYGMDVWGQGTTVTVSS
VL: DIQMTQSPSSLSASVGDRVTITCRASQSISLFLNWYQQKPGKAPKLLIYTASSLQSGVPSRFSGSGSGTDFTLTISSLQPEDFATYYCQQANSFPPTFGGGTKVDIKR
B7: anti-CD277 antibody mAb3 (antibody, human IgG1, kappa, N297A, V domains shown)
VH: QVQLVQSGAEVKKPGASVKVSCKASGYTFNGYYIHWVRQAPGQGLEWMGWINSNSGGTKYAQKFQGRVTMTRDTSISTAYMELSRLRSDDTAVYYCARRHSDMIGYYYGMDVWGQGTTVTVSS
VL: DIQMTQSPSSVSASVGDRVTITCRASQGISSWLAWYQQKPGKAPKLLIYAASSLQSGVPSRFSGSGSGTDFTLTISSLQPEDFATYYCQQATDFPPTFGGGTKVEIKR
B8: anti-CD277 antibody mAb10 (antibody, human IgG1, kappa, N297A, V domains shown)
VH: QVQLVQSGAEVKKPGASVKVSCKASGYTFTNYYMHWVRQAPGQGLEWMGWINVNSGVTKYAQKFQGRVTMTRDTSISTAYMELSRLRSDDTAVYYCARRHSDMIGYYYGMDVWGQGTTVTVSS
VL: DIQMTQSPSSLSASVGDRVTITCRASQSISSYLNWYQQKPGKAPKLLIYAASSLQSGVPSRFSGSGSGTDFTLTISSLQPEDFATYYCQQANTFPPTFGQGTRLEIKR
B9: anti-CD277 antibody mAb8 (antibody, human IgG1, kappa, N297A, V domains shown)
VH: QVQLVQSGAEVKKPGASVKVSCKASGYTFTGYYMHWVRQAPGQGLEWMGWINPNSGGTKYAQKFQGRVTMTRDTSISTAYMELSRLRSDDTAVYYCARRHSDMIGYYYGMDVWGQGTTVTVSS
VL: DIQMTQSPSSLSASVGDRVTITCRASQSIDRYLNWYQQKPGKAPKLLIYAASRLQSGVPSRFSGSGSGTDFTLTISSLQPEDFATYYCQQANSFPPTFGQGTRLEIKR
B10: anti-CD277 antibody mAb9 (antibody, V domains shown)
VH: QVQLVQSGAEVKKPGASVKVSCKASGYTFNGYYIHWVRQAPGQGLEWMGWINSNSGGTKYAQKFQGRVTMTRDTSISTAYMELSRLRSDDTAVYYCARRHSDMIGYYYGMDVWGQGTTVTVSS
VL: DIQLTQSPSSLSASVGDRVTITCRASQSISSYLNWYQQKPGKVPKLLIYAASTLQSGVPSRFSGSGSGTDFTLTISSLQPEDFATYSCQQTNSFPPTFGQGTKVEIKR
B11: anti-CD277 antibody mAb2 (antibody, human IgG1, kappa, N297A, V domains shown)
VH: QVQLVQSGAEVKKPGASVKVSCKASGYTFSNYYIHWVRQAPGQGLEWMGWINANSGGTKYAQKFQGRVTMTRDTSISTAYMELSRLRSDDTAVYYCARRHSDMIGYYYGMDVWGQGTTVTVSS
VL: DIQMTQSPSSLSASVGDRVTITCRASQSIDRYLNWYQQKPGKAPKLLIYAASRLQSGVPSRFSGSGSGTDFTLTISSLQPEDFATYYCQQANSFPPTFGQGTRLEIKR

human BTN3A1 ectopically expressed on K32 cells, sequence (O00481 30-513 limits assumed): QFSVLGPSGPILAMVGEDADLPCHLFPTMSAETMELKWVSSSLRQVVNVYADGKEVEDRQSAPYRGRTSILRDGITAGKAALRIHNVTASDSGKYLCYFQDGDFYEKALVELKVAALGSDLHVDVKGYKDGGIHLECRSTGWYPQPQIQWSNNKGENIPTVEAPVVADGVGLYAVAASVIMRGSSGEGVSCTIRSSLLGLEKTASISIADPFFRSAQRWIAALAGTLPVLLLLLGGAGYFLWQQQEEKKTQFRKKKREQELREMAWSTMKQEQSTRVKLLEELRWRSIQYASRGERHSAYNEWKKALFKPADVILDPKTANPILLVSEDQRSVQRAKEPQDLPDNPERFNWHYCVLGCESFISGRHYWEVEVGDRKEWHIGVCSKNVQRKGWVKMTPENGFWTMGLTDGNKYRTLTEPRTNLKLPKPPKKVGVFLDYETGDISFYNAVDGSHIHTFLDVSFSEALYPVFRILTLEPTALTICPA

One assay has as its target human BTN3A1 ectopically expressed on K32 cells (human, UniProt O00481 30-513). Description: cell-based or functional assay.
Take B1: the “IFN-γ release by purified CD4+ T cells stimulated with BTN-K32 cells” value is at least 2 fold, the “IFN-γ release by purified CD8+ T cells stimulated with BTN-K32 cells” value was around 1300 fold, the “proliferation of gated CD4+ T cells within total PBMCs co-cultured with anti-CD3/anti-CD28 coated BTN-K32 cells” value is at least 1.5 fold and the “proliferation of gated CD8+ T cells within total PBMCs co-cultured with anti-CD3/anti-CD28 coated BTN-K32 cells” value is at least 1.5 fold. Moreover, the “proliferation of purified CD4+ T cells stimulated with BTN-K32 cells” value is at least 1.5 fold and the “proliferation of purified CD8+ T cells stimulated with BTN-K32 cells” value is at least 2 fold.

The target of a further assay is T1, human CD277 (human, UniProt O00481 30-254, limits assumed).
T1 construct: The SPR method text speaks of 'purified recombinant his tagged human CD137', apparently an error for CD277; also called BTN3A1; human CD277 polypeptides
T1 sequence (O00481 30-254 limits assumed): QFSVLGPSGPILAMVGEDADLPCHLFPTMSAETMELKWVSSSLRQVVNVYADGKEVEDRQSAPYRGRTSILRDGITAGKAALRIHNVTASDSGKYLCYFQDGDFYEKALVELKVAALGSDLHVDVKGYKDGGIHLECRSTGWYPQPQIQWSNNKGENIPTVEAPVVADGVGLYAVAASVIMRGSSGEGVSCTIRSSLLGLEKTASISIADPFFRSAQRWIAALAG
Kind of assay: SPRi (Carterra MX96), antibody printed on chip, his-tagged antigen injected, 1:1 fit. As for the experimental part: The resulting anti-CD277 antibodies from different selection rounds were plotted on kd/kₐ double log plots. Apparent association and dissociation kinetic rate constants (kₐ and kd values) were determined on an SPRi reader (MX96, Carterra) in a running buffer of PBS-C 0.01%. […] antibodies were covalently printed on a Carboxymethyldextran hydrogel 50 L chip (Xantec bioanalytics) on a CFM (Carterra). Freshly mixed activating reagents ([…] 0.4 M EDC and […] 0.1 M sulfo-NHS in H2O) were used to activate the surface of the SPR substrate for 7 minutes. Antibodies at 10 mg/ml in acetic acid buffer pH 4.5 were used for printing for 15 minutes. The printed chip was then quenched on SPRi reader (MX96, Carterra) with 1 M ethanolamine for 15 minutes. For kinetics analysis, purified recombinant his tagged human […] (0, 2.05, 5.12, 12.8, 32, 80, 200, 500 nM) was injected sequentially. For each concentration, there was 5 minutes of association followed by 10 minutes of dissociation. Data were processed and analyzed in SPR Inspection Tool and Scrubber softwares. The kinetic data were referenced with the interstitial reference spots and double-referenced to a buffer cycle, and then fit globally to a 1:1 binding model to determine their apparent association and dissociation kinetic rate constants (kₐ and kd values). The ratio kd/kₐ was used to derive the KD value of each antigen/mAb interaction, i.e. KD=kd/kₐ.
On to B1, for which binding was put at a Kd of 16.7 nM, the dissociation rate constant (koff) was 0.000384 s⁻¹ and the on-rate (kon) turned out to be 23000 M⁻¹ s⁻¹.

B2 gave a Kd of 5.13 nM, a koff of 9.36e-05 s⁻¹ and a kon of 18200 M⁻¹ s⁻¹.

The molecule B3 gave a Kd of 12.9 nM, a koff of 0.00025 s⁻¹ and a kon of 19300 M⁻¹ s⁻¹.

B4: the Kd came to 6.69 nM, the koff is 0.000159 s⁻¹ and the kon came out at 23700 M⁻¹ s⁻¹.

In turn, B5 yielded a Kd of 10.1 nM, a koff of 0.00019 s⁻¹ and a kon of 18800 M⁻¹ s⁻¹.

B6 yielded a Kd of 4.37 nM, an off-rate constant (koff) of 0.000118 s⁻¹ and a kon of 27100 M⁻¹ s⁻¹.

The molecule B7 registered a dissociation constant (Kd) of 6.71 nM, a koff of 0.000121 s⁻¹ and a kon of 18100 M⁻¹ s⁻¹.

In turn, B8 showed a Kd of 4.69 nM, a koff of 8.03e-05 s⁻¹ and a kon of 17100 M⁻¹ s⁻¹.

For B9, the Kd is 6.05 nM, the koff turned out to be 0.000138 s⁻¹ and the association rate constant (kon) was found to be 22800 M⁻¹ s⁻¹.

B10: the dissociation constant (Kd) worked out at 6.82 nM, the koff was found to be 9.71e-05 s⁻¹ and the kon came out at 14200 M⁻¹ s⁻¹.

B11: the Kd worked out at 2.68 nM, the koff is 4.89e-05 s⁻¹ and the association rate constant (kon) came out at 18300 M⁻¹ s⁻¹.

The values are drawn from US20210309746A1 (COMPASS THERAPEUTICS, published 2021).
